The results in this text go back to patent publication US20230120736A1, “ANTI-CD98 ANTIBODIES AND ANTIBODY DRUG CONJUGATES” (AbbVie Inc., priority 2016, published 2023).

The subject of series [1] is NCI-H146 (human small cell lung cancer) xenograft. The series is described as follows: NCI-H146 xenograft tumor growth inhibition. The format is in vivo, mouse. The conditions noted are these: SCID-bg mice. On the procedure: The in vivo efficacy of anti-CD98 hybridoma mAb conjugates were tested using Ab3-CZ and Ab5-CZ as examples in NCI-H146 (human small cell lung cancer) xenograft model. […] The cells were cultured as monolayers in RPMI-1640 culture media (Invitrogen, Carlsbad, Calif.) that was supplemented with 10% Fetal Bovine Serum (FBS, Hyclone, Logan, Utah). To generate xenografts, 5×10^6 (NCI-H146) viable cells were inoculated subcutaneously into the right flank of immune deficient female SCID-bg mice (Charles River Laboratories, Wilmington, Mass.). The injection volume was 0.2 mL and composed of Matrigel (BD, Franklin Lakes, N.J.). Tumors were size matched at approximately 212 mm^3. Antibodies and conjugates were formulated in phosphate buffered saline, pH 7.2 and injected intraperitoneally. […] Therapy began within 24 hours after size matching of the tumors. Mice weighed approximately 21 g at the onset of therapy. Tumor volume was estimated two to three times weekly. Measurements of the length (L) and width (W) of the tumor were taken via electronic caliper and the volume was calculated according to the following equation: V=L×W^2/2. Mice were euthanized when tumor volume reached 3,000 mm^3 or skin ulcerations occurred. Eight mice were housed per cage. Food and water were available ad libitum. Mice were acclimated to the animal facilities for a period of at least one week prior to commencement of experiments. Animals were tested in the light phase of a 12-hour light: 12-hour dark schedule (lights on at 06:00 hours). Anti-CD98 conjugates (10 mg/kg) were administered as a single dose (QDx1) intraperitoneally. A human IgG control antibody (MSL109, a humanized IgG1 antibody that binds to cytomegalovirus (CMV) glycoprotein H) was used as a negative control agent.
(§1) To refer to efficacy of therapeutic agents, parameters of amplitude (TGImax), durability (TGD) and response frequency (CR, PR, OR) of therapeutic response are used. The efficacy of inhibition of NCI-H146 xenografts growth with CD98-targeted ADCs is illustrated by Table 6, below. In the tables, to refer to efficacy, parameters of amplitude (TGImax) and durability (TGD) of therapeutic response are used. TGImax is the maximum tumor growth inhibition during the experiment. Tumor growth inhibition is calculated by 100*(1−Tv/Cv) where Tv and Cv are the mean tumor volumes of the treated and control groups, respectively. TGD or tumor growth delay is the extended time of a treated tumor needed to reach a volume of 1 cm^3 relative to the control group. TGD is calculated by 100*(Tt/Ct−1) where Tt and Ct are the median time periods to reach 1 cm^3 of the treated and control groups, respectively. Distribution of the response amplitude in a specific group is given by the frequency of complete responders (CR), partial responders (PR), and overall responders (OR). CR is the percentage of mice within a group with a tumor burden of 25 mm^3 for at least three measurements. PR is the percentage of mice within a group with a tumor burden larger than 25 mm^3 but less than one-half of the volume at onset of treatment for at least three measurements. OR is the sum of CR and PR.
The in vivo anti-tumor efficacy of selected humanized anti-CD98 mAb conjugates were tested in NCI-H146 (human small cell lung cancer) xenograft model, as described in Example 6. Tumor growth inhibition was reported as TGImax in Table 28.

Series [2] concerns Jurkat acute T cell leukemia cell line. The series is described as follows: Growth inhibition assay (CellTiter-Glo). The conditions noted are these: read-out: ADC potency, IC50, Jurkat, 5-days treatment, 3000 cells per well. On the technique in general: ATP-based viability assays read luminescence as a measure of living cells.
Series [3] has as its system HCC38 breast cancer cell line. The experiment in a line: Growth inhibition assay (CellTiter-Glo). The conditions noted are these: read-out: ADC potency, IC50, HCC38, 4-days treatment, 3000 cells per well.
Series [4] in a line: Size exclusion chromatography, % aggregate fraction of ADC. The format is physicochemical. As to conditions: hybridoma mAb conjugated with synthon CZ, Method A. The protocol: Size exclusion chromatography was performed using a Shodex KW802.5 column in 0.2M potassium phosphate pH 6.2 with 0.25 mM potassium chloride and 15% IPA at a flow rate of 0.75 ml/min. The peak area absorbance at 280 nm was determined for each of the high molecular weight and monomeric eluents by integration of the area under the curve. The % aggregate fraction of the conjugate sample was determined by dividing the peak area absorbance at 280 nm for the high molecular weight eluent by the sum of the peak area absorbances at […] of the high molecular weight and monomeric eluents multiplied by 100%.

Series [5] concerns EBC-1 (human lung squamous cell carcinoma) xenograft. The series is described as follows: EBC-1 xenograft tumor growth inhibition. It counts as in vivo, mouse. The conditions noted are these: SCID-bg mice; for Growth Inhibition TGImax / Response Frequency CR / Response Frequency PR / Tumor growth delay (TGD): 10 mg/kg IP QDx1; for Response Frequency OR: 10 mg/kg IP QDx1, sum of CR and PR. The protocol:
as §1, with “The efficacy of inhibition of NCI-H146 xenografts growth with CD98-targeted ADCs is illustrated by Table 6, below.” left out
EBC-1 was obtained from the Japanese Collection of Research Bioresources Cell Bank (JCRB, Osaka, Japan) and were cultured using MEM culture media with 10% FBS. To generate xenografts, 5×10^6 EBC-1 viable cells were inoculated subcutaneously into the right flank of immune deficient female SCID-bg mice (Charles River Laboratories, Wilmington, Mass.). The injection volume was 0.2 mL and the inoculum was composed of 1:1 mixture of S-MEM and Matrigel. Tumors were size matched at approximately 200 mm^3. Antibodies and conjugates were formulated in phosphate buffered saline, pH 7.2 and injected intraperitoneally. […] Therapy began within 24 hours after size matching of the tumors. Mice weighed approximately 21-22 g at the onset of therapy. Tumor volume was estimated two to three times weekly. Measurements of the length (L) and width (W) of the tumor were taken via electronic caliper and the volume was calculated according to the following equation: V=L×W^2/2. Mice were euthanized when tumor volume reached 3,000 mm^3 or skin ulcerations occurred. Eight mice were housed per cage. Food and water were available ad libitum. Mice were acclimated to the animal facilities for a period of at least one week prior to commencement of experiments. Animals were tested in the light phase of a 12-hour light: 12-hour dark schedule (lights on at 06:00 hours). Anti-CD98 conjugates (10 mg/kg) were administered as a single dose (QDx1) intraperitoneally. A human IgG control antibody (AB095, a human IgG1 antibody recognizing tetanus toxoid See Larrick et al., 1992, Immunological Reviews 69-85) was used as a negative control agent.
To refer to efficacy of therapeutic agents, parameters of amplitude (TGImax), durability (TGD) and response frequency (CR, PR, OR) of therapeutic response are used as described in the Example 6.

Usually IC50 stands for the concentration that gives 50% inhibition.

Changes are numbered by the printed parent chain. Marks after values point to notes of the source that are not given here.

With “MSL109: "a humanized IgG1 antibody that binds to cytomegalovirus (CMV) glycoprotein H", "negative control agent" [reference compound]”, in series [1] (10 mg/kg IP QDx1), the “Growth Inhibition TGD” value was 0%, the “Growth Inhibition TGImax” value was determined as 0%, the “Response Frequency CR” value was determined as 0% and the “Response Frequency PR” value was 0%. Further, the “Response Frequency OR” value in series [1] (10 mg/kg IP QDx1, sum of CR and PR) is given as 0%.

B1: Ab14-CZ (conjugate)
VH: EVKLQQSGDELVRPGASVKISCKASGYTFTSYSMHWVKERPGQGLEWIGAIFPIIGTTEYNQKFKGKATLTADKSSNTANMELSRLTSEDSAVYYCARVYLSYFDYWGQGVMVTVSS
VL: DIQMTQSPSFLSASVGDRVTINCKASQNINKYLDWYQRKHGEAPKLLIYNTNNLQTGIPSRFSGSGSGTDYTLTISSLQPEDVATYFCLQHSSRYTFGAGTKLELK
Regarding B1, the figures for the IC50 in series [2] and in series [3] were 63 pM and 798 pM, respectively. In addition, the “% Aggregates by SEC” value in series [4] worked out at 8.8%.

B2: Ab10-CZ (conjugate)
VH: EVQLVESGGGLVQPGRSLKLSCAASGFTFSDYAMAWVRQAPKKSLEWVATIIYDGRGTYCRDSVKGRFTISRDNAKSTLYLQMDSLRSEDTATYYCARQGDGTYHYWGYFDYWGQGVMVTVSS
VL: DIVMTQSPSSLAVSAGETVTINCKSSQSLLSSGNQKNYLAWYQQKPGQSPKLLIYWASTRQSGVPDRFIGSGSGTDFTLTISSVQAEDLAIYYCQQYYDTPYTFGAGTKVDLK
B2: the IC50 was found to be 148 pM in series [2] and 1160 pM in series [3]. For the same molecule, the “% Aggregates by SEC” value in series [4] came to 4.7%.

B3: ChAb12-CZ (conjugate)
VH: B2 VH with S44G, T50S, C60Y, H105Y, Y109S
VL: B2 VL with Y93H, V110L, D111E
B3: in series [5], the “Growth Inhibition TGImax” value is on record as 76* %, the “Response Frequency CR” value came to 0%, the “Response Frequency PR” value worked out at 25% and the “Tumor growth delay (TGD)” value is given as 74* %. In addition, the “Response Frequency OR” value in series [5] was determined as 25%.

B4: Ab15-CZ (conjugate)
VH: B2 VH with A33T, S44G, C60Y, G100S, H105Y
VL: B2 VL with S31F, S82R, T100S, V110L, D111E
On to B4, for which the half-inhibitory concentration (IC50) in series [2] stood at 76 pM; in series [3], 1060 pM. For the same molecule, the “% Aggregates by SEC” value in series [4] is given as 5.7%.

B5: Ab11-CZ (conjugate)
VH: B2 VH with S44G, T50G, C60Y, H105Y
VL: B2 VL with K24R, V110L, D111E
For B5, the half-inhibitory concentration (IC50) in series [2] came out at 311 pM; in series [3] it was 1140 pM. Also, the “% Aggregates by SEC” value in series [4] worked out at 4.2%.

B6: ChAb15-CZ (conjugate)
VH: B2 VH with A33T, S44G, C60Y, G100S, H105Y
VL: B2 VL with S31F, S82R, T100S, V110L, D111E
In the case of B6, in series [5], the “Growth Inhibition TGImax” value was 70* %, the “Response Frequency CR” value is 0%, the “Response Frequency PR” value was found to be 0% and the “Tumor growth delay (TGD)” value is recorded as 74* %. Also, the “Response Frequency OR” value in series [5] amounted to 0%.

B7: Ab12-CZ (conjugate)
VH: B2 VH with S44G, T50S, C60Y, H105Y, Y109S
VL: B2 VL with Y93H, V110L, D111E
In the case of B7, the values for the IC50 in series [2] and in series [3] were 94 pM and 685 pM, respectively. The “% Aggregates by SEC” value in series [4] came out at 2.9%.

B8: Ab13-CZ (conjugate)
VH: QVQLKESGPGLVQPSQTLSLTCTVSGFSLSSYGVIWVRQPPGKGLEWMGIIWANGNTNYNSALKSRLSISRDTSKSQVYLKMNSLQTEDTATYYCARHYYDGTHYYGYFDYWGQGVMVTVSS
VL: DTVMTQTPSSQAVSAGEKVTMSCKSSQSLLYSENKKKYLAWYQQKPGQSPKLLIYWASTRESGVPDRFIGSGSGTDFTLTISSVQAEDLAVYYCQQYYNFPYTFGAGTKLELK
As for B8, the values for the IC50 in series [2] and in series [3] were 149 pM and 787 pM, respectively. Besides, in series [4], the “% Aggregates by SEC” value is 4.7%.
